Laboratory results from PMC9164447.

Molecular target: SARS-CoV-2 nucleocapsid N protein wild type (SARS-CoV-2) (UniProt P0DTC9)
Experiment: fluorescence anisotropy

Sequence: NNNNNNNNNN [10-nt degenerate RNA]
- Kd: 0.028 µM
